The results in this text go back to patent publication US20160206741.

For the series, the system named is T1, GRRRGK (SEQ ID NO: 1) oligopeptide crosslink within P(MAA-co-NVP) microgels.
T1 sequence: GRRRGK

trypsin: the “relative turbidity of microgel solutions over time” value was “reduced relative turbidity as a function of time and trypsin concentration”; the “trypsin activity on the BAEE substrate (absorbance at 253 nm) after 90 min with 0-6 mg/ml microgels” value is recorded as “trypsin activity on the BAEE substrate is reduced as microgel concentration increases”.
